In article PMC2819989:

Target: RhiG-C-His (Bacillus subtilis ATCC6633)
Test: SEC

Q: With RhiG-C-His (enzyme) as the substance, how does the stoichiometry N read?
A: 2
